{"source": "patent EP4671273A1", "about": "(Anaveon AG, dated 2025)"}
{"target": "human IL-21 receptor (IL-21R) on cells (human, UniProt Q9HBE5 20-538; P31785 23-369)", "sequence (Q9HBE5 20-538, chain 1 of 2)": "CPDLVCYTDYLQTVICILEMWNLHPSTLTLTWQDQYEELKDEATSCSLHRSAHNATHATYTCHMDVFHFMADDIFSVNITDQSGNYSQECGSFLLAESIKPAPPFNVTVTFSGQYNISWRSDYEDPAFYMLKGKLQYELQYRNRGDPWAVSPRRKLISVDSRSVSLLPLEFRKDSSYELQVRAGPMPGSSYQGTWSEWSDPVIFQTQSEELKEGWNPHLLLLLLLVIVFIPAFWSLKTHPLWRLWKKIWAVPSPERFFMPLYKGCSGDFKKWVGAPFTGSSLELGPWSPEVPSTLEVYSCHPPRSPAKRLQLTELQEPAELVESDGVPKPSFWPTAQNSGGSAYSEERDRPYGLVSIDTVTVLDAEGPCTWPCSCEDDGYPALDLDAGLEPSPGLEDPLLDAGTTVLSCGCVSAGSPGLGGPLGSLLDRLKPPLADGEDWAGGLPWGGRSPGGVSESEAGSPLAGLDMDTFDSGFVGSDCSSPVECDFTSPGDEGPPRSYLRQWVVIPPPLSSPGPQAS", "sequence (P31785 23-369, chain 2 of 2)": "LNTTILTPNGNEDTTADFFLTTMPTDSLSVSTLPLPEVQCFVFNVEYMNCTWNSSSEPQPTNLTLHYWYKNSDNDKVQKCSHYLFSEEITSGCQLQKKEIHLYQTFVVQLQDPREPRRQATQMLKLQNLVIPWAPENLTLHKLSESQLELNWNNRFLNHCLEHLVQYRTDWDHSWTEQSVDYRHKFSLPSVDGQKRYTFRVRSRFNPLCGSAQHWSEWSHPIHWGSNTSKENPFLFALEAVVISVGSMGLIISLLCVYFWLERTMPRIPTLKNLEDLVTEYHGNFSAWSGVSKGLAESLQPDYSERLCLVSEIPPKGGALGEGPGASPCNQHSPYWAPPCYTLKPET", "assay": "cell-based or functional assay", "units": {"EC50B, pSTAT3+ Jurkat PD-1 cells, PD-1 blocked": "nM"}}
{"binder": "GWM570 (bispecific antibody, human IgG1, kappa, lambda, L234A L235A) heavy 1: EVQLLESGGGLVQPGGSLRLSCAASGFTFSINAMTWVRQAPGKGLEWVSTISGSGFSTYYADSLKGRFTISRDNSKNTLYLQMNSLRAEDTAVYYCAKEVYGDYWGQGTLVTVSSASTKGPSVFPLAPSSKSTSGGTAALGCLVKDYFPEPVTVSWNSGALTSGVHTFPAVLQSSGLYSLSSVVTVPSSSLGTQTYICNVNHKPSNTKVDKRVEPKSCDKTHTCPPCPAPEAAGGPSVFLFPPKPKDTLMISRTPEVTCVVVDVSHEDPEVKFNWYVDGVEVHNAKTKPREEQYNSTYRVVSVLTVLHQDWLNGKEYKCKVSNKALAAPIEKTISKAKGQPREPQVCTLPPSREEMTKNQVSLSCAVKGFYPSDIAVEWESNGQPENNYKTTPPVLDSDGSFFLVSKLTVDKSRWQQGNVFSCSVMHEALHNHYTQKSLSLSPGK light 1: not shown heavy 2: QVQLQESGPGLVKPSETLSLTCTVSGGSISSDFWGWIRQPPGKGLEWIGYISSRGSTNYNPSLKRRVTISVDTSRNQFSLKLSSVTAADTAVYYCARSAGVTDFDFWGQGTLVTVSSASTKGPSVFPLAPSSKSTSGGTAALGCLVKDYFPEPVTVSWNSGALTSGVHTFPAVLQSSGLYSLSSVVTVPSSSLGTQTYICNVNHKPSNTKVDKRVEPKSCDKTHTCPPCPAPEAAGGPSVFLFPPKPKDTLMISRTPEVTCVVVDVSHEDPEVKFNWYVDGVEVHNAKTKPREEQYNSTYRVVSVLTVLHQDWLNGKEYKCKVSNKALAAPIEKTISKAKGQPREPQVYTLPPCREEMTKNQVSLWCLVKGFYPSDIAVEWESNGQPENNYKTTPPVLDSDGSFFLYSKLTVDKSRWQQGNVFSCSVMHEALHNHYTQKSLSLSPGK light 2: not shown", "EC50B, pSTAT3+ Jurkat PD-1 cells, PD-1 blocked": 2.13, "EC50NB, pSTAT3+ Jurkat PD-1 cells": "0.257 nM"}
{"binder": "CDP278 (bispecific antibody, human IgG1, kappa, lambda, L234A L235A) heavy 1: EVQLLESGGGLVQPGGSLRLSCAASGFTFSINAMTWVRQAPGKGLEWVSTISGSGFSTYYADSLKGRFTISRDNSKNTLYLQMNSLRAEDTAVYYCAKEVYGDYWGQGTLVTVSSASTKGPSVFPLAPSSKSTSGGTAALGCLVKDYFPEPVTVSWNSGALTSGVHTFPAVLQSSGLYSLSSVVTVPSSSLGTQTYICNVNHKPSNTKVDKRVEPKSCDKTHTCPPCPAPEAAGGPSVFLFPPKPKDTLMISRTPEVTCVVVDVSHEDPEVKFNWYVDGVEVHNAKTKPREEQYNSTYRVVSVLTVLHQDWLNGKEYKCKVSNKALAAPIEKTISKAKGQPREPQVCTLPPSREEMTKNQVSLSCAVKGFYPSDIAVEWESNGQPENNYKTTPPVLDSDGSFFLVSKLTVDKSRWQQGNVFSCSVMHEALHNHYTQKSLSLSPGK light 1: not shown heavy 2: QVQLQESGPGLVKPSETLSLTCTVSGGSISSDFWGWIRQPPGKGLEWIGYISSRGSTNYNPSLKRRVTISVDTSRNQFSLKLSSVTAADTAVYYCARSAGVTDFDFWGQGTLVTVSSASTKGPSVFPLAPSSKSTSGGTAALGCLVKDYFPEPVTVSWNSGALTSGVHTFPAVLQSSGLYSLSSVVTVPSSSLGTQTYICNVNHKPSNTKVDKRVEPKSCDKTHTCPPCPAPEAAGGPSVFLFPPKPKDTLMISRTPEVTCVVVDVSHEDPEVKFNWYVDGVEVHNAKTKPREEQYNSTYRVVSVLTVLHQDWLNGKEYKCKVSNKALAAPIEKTISKAKGQPREPQVYTLPPCREEMTKNQVSLWCLVKGFYPSDIAVEWESNGQPENNYKTTPPVLDSDGSFFLYSKLTVDKSRWQQGNVFSCSVMHEALHNHYTQKSLSLSPGK light 2: not shown", "EC50B, pSTAT3+ Jurkat PD-1 cells, PD-1 blocked": 1.05, "EC50NB, pSTAT3+ Jurkat PD-1 cells": "0.167 nM"}
{"binder": "CDP451 (bispecific antibody, human IgG1, kappa, lambda, L234A L235A) heavy 1: EVQLLESGGGLVQPGGSLRLSCAASGFTFSINAMTWVRQAPGKGLEWVSTISGSGFSTYYADSLKGRFTISRDNSKNTLYLQMNSLRAEDTAVYYCAKEVYGDYWGQGTLVTVSSASTKGPSVFPLAPSSKSTSGGTAALGCLVKDYFPEPVTVSWNSGALTSGVHTFPAVLQSSGLYSLSSVVTVPSSSLGTQTYICNVNHKPSNTKVDKRVEPKSCDKTHTCPPCPAPEAAGGPSVFLFPPKPKDTLMISRTPEVTCVVVDVSHEDPEVKFNWYVDGVEVHNAKTKPREEQYNSTYRVVSVLTVLHQDWLNGKEYKCKVSNKALAAPIEKTISKAKGQPREPQVCTLPPSREEMTKNQVSLSCAVKGFYPSDIAVEWESNGQPENNYKTTPPVLDSDGSFFLVSKLTVDKSRWQQGNVFSCSVMHEALHNHYTQKSLSLSPGK light 1: not shown heavy 2: QVQLQESGPGLVKPSETLSLTCTVSGGSISSDFWGWIRQPPGKGLEWIGYISSRGSTNYNPSLKRRVTISVDTSRNQFSLKLSSVTAADTAVYYCARSAGVTDFDFWGQGTLVTVSSASTKGPSVFPLAPSSKSTSGGTAALGCLVKDYFPEPVTVSWNSGALTSGVHTFPAVLQSSGLYSLSSVVTVPSSSLGTQTYICNVNHKPSNTKVDKRVEPKSCDKTHTCPPCPAPEAAGGPSVFLFPPKPKDTLMISRTPEVTCVVVDVSHEDPEVKFNWYVDGVEVHNAKTKPREEQYNSTYRVVSVLTVLHQDWLNGKEYKCKVSNKALAAPIEKTISKAKGQPREPQVYTLPPCREEMTKNQVSLWCLVKGFYPSDIAVEWESNGQPENNYKTTPPVLDSDGSFFLYSKLTVDKSRWQQGNVFSCSVMHEALHNHYTQKSLSLSPGK light 2: not shown", "EC50B, pSTAT3+ Jurkat PD-1 cells, PD-1 blocked": 1.24, "EC50NB, pSTAT3+ Jurkat PD-1 cells": "0.106 nM"}
{"binder": "ETR048 (bispecific antibody, human IgG1, kappa, lambda, L234A L235A) heavy 1: EVQLLESGGGLVQPGGSLRLSCAASGFTFSINAMTWVRQAPGKGLEWVSTISGSGFSTYYADSLKGRFTISRDNSKNTLYLQMNSLRAEDTAVYYCAKEVYGDYWGQGTLVTVSSASTKGPSVFPLAPSSKSTSGGTAALGCLVKDYFPEPVTVSWNSGALTSGVHTFPAVLQSSGLYSLSSVVTVPSSSLGTQTYICNVNHKPSNTKVDKRVEPKSCDKTHTCPPCPAPEAAGGPSVFLFPPKPKDTLMISRTPEVTCVVVDVSHEDPEVKFNWYVDGVEVHNAKTKPREEQYNSTYRVVSVLTVLHQDWLNGKEYKCKVSNKALAAPIEKTISKAKGQPREPQVCTLPPSREEMTKNQVSLSCAVKGFYPSDIAVEWESNGQPENNYKTTPPVLDSDGSFFLVSKLTVDKSRWQQGNVFSCSVMHEALHNHYTQKSLSLSPGK light 1: not shown heavy 2: QVQLQESGPGLVKPSETLSLTCTVSGGSISSDYWGWIRQPPGKGLEWIGYISYRGSTNYNPSLKSRVTISVDTSRNQFSLKLSSVTAADTAVYYCARSAGVTDFDWWGQGTLVTVSSASTKGPSVFPLAPSSKSTSGGTAALGCLVKDYFPEPVTVSWNSGALTSGVHTFPAVLQSSGLYSLSSVVTVPSSSLGTQTYICNVNHKPSNTKVDKRVEPKSCDKTHTCPPCPAPEAAGGPSVFLFPPKPKDTLMISRTPEVTCVVVDVSHEDPEVKFNWYVDGVEVHNAKTKPREEQYNSTYRVVSVLTVLHQDWLNGKEYKCKVSNKALAAPIEKTISKAKGQPREPQVYTLPPCREEMTKNQVSLWCLVKGFYPSDIAVEWESNGQPENNYKTTPPVLDSDGSFFLYSKLTVDKSRWQQGNVFSCSVMHEALHNHYTQKSLSLSPGK light 2: not shown", "EC50B, pSTAT3+ Jurkat PD-1 cells, PD-1 blocked": 0.751, "EC50NB, pSTAT3+ Jurkat PD-1 cells": "12 pM"}
{"binder": "EJD551 (bispecific antibody, human IgG1, kappa, lambda, L234A L235A) heavy 1: EVQLLESGGGLVQPGGSLRLSCAASGFTFSINAMTWVRQAPGKGLEWVSTISGSGFSTYYADSLKGRFTISRDNSKNTLYLQMNSLRAEDTAVYYCAKEVYGDYWGQGTLVTVSSASTKGPSVFPLAPSSKSTSGGTAALGCLVKDYFPEPVTVSWNSGALTSGVHTFPAVLQSSGLYSLSSVVTVPSSSLGTQTYICNVNHKPSNTKVDKRVEPKSCDKTHTCPPCPAPEAAGGPSVFLFPPKPKDTLMISRTPEVTCVVVDVSHEDPEVKFNWYVDGVEVHNAKTKPREEQYNSTYRVVSVLTVLHQDWLNGKEYKCKVSNKALAAPIEKTISKAKGQPREPQVCTLPPSREEMTKNQVSLSCAVKGFYPSDIAVEWESNGQPENNYKTTPPVLDSDGSFFLVSKLTVDKSRWQQGNVFSCSVMHEALHNHYTQKSLSLSPGK light: not shown heavy 2: QVQLQESGPGLVKPSETLSLTCTVSGGSISSDYWGWIRQPPGKGLEWIGYISYRGSTNYNPSLKSRVTISVDTSRNQFSLKLSSVTAADTAVYYCARSAGVTDFDWWGQGTLVTVSSASTKGPSVFPLAPSSKSTSGGTAALGCLVKDYFPEPVTVSWNSGALTSGVHTFPAVLQSSGLYSLSSVVTVPSSSLGTQTYICNVNHKPSNTKVDKRVEPKSCDKTHTCPPCPAPEAAGGPSVFLFPPKPKDTLMISRTPEVTCVVVDVSHEDPEVKFNWYVDGVEVHNAKTKPREEQYNSTYRVVSVLTVLHQDWLNGKEYKCKVSNKALAAPIEKTISKAKGQPREPQVYTLPPCREEMTKNQVSLWCLVKGFYPSDIAVEWESNGQPENNYKTTPPVLDSDGSFFLYSKLTVDKSRWQQGNVFSCSVMHEALHNHYTQKSLSLSPGK not shown", "EC50B, pSTAT3+ Jurkat PD-1 cells, PD-1 blocked": 1.06, "EC50NB, pSTAT3+ Jurkat PD-1 cells": "16 pM"}
{"binder": "XOW683 (bispecific antibody, human IgG1, kappa, lambda, L234A L235A) heavy 1: EVQLLESGGGLVQPGGSLRLSCAASGFTFSINAMTWVRQAPGKGLEWVSTISGSGFSTYYADSLKGRFTISRDNSKNTLYLQMNSLRAEDTAVYYCAKEVYGDYWGQGTLVTVSSASTKGPSVFPLAPSSKSTSGGTAALGCLVKDYFPEPVTVSWNSGALTSGVHTFPAVLQSSGLYSLSSVVTVPSSSLGTQTYICNVNHKPSNTKVDKRVEPKSCDKTHTCPPCPAPEAAGGPSVFLFPPKPKDTLMISRTPEVTCVVVDVSHEDPEVKFNWYVDGVEVHNAKTKPREEQYNSTYRVVSVLTVLHQDWLNGKEYKCKVSNKALAAPIEKTISKAKGQPREPQVCTLPPSREEMTKNQVSLSCAVKGFYPSDIAVEWESNGQPENNYKTTPPVLDSDGSFFLVSKLTVDKSRWQQGNVFSCSVMHEALHNHYTQKSLSLSPGK light 1: not shown heavy 2: QVQLQESGPGLVKPSETLSLTCTVSGGSISSDYWGWIRQPPGKGLEWIGYISYSGSTNYNPSLKSRVTISVDTSRNQFSLKLSSVTAADTAVYYCARSAGVTDFDAWGQGTLVTVSSASTKGPSVFPLAPSSKSTSGGTAALGCLVKDYFPEPVTVSWNSGALTSGVHTFPAVLQSSGLYSLSSVVTVPSSSLGTQTYICNVNHKPSNTKVDKRVEPKSCDKTHTCPPCPAPEAAGGPSVFLFPPKPKDTLMISRTPEVTCVVVDVSHEDPEVKFNWYVDGVEVHNAKTKPREEQYNSTYRVVSVLTVLHQDWLNGKEYKCKVSNKALAAPIEKTISKAKGQPREPQVYTLPPCREEMTKNQVSLWCLVKGFYPSDIAVEWESNGQPENNYKTTPPVLDSDGSFFLYSKLTVDKSRWQQGNVFSCSVMHEALHNHYTQKSLSLSPGK light 2: not shown", "EC50B, pSTAT3+ Jurkat PD-1 cells, PD-1 blocked": 1.84, "EC50NB, pSTAT3+ Jurkat PD-1 cells": "0.413 nM"}
